Source: patent US20150093398A1, “Methods and Compositions for Treating or Preventing Cancer” (MERCK SHARP & DOHME CORP., priority 2005, published 2015)

Tests used:
Type in all cases: in vivo, Athymic nude mice
[1] = system: SK-N-AS neuroblatoma cells; assay: SK-N-AS neuroblastoma xenograft tumor growth in mice (03 IGFR-09, 19D12 vs. Cytoxan)
Protocol: Athymic nude mice were inoculated with tumor cells in the right flank, subcutaneously, along with Matrigel (1:1 cells:gel). In these experiments, 5×10^6 cells/mouse in a 1:1 mix with regular matrigel were inoculated subcutaneously. Tumor size was measured with calipers and the data was entered into the labcat program. Mice were grouped with average size of 100 mm^3. Tumor size and body weight were measured twice weekly.
In these experiments, mice were dosed twice per week, intraperitoneally (i.p.) with antibody 19D12 and chemotherapeutic agents at the indicated frequency. Tumor size and mouse body weight was measured twice weekly after treatment.

[2] = system: SK-N-MC neuroblastoma cells; assay: SK-N-MC neuroblastoma xenograft tumor growth in mice (04 IGFR-13, 19D12 vs. Cisplatin)
[3] = system: SK-N-FI neuroblastoma cells; assay: SK-N-FI neuroblastoma xenograft tumor growth in mice (04 IGFR-20)

B1: 19D12: anti-IGF1R antibody: light chain variable region amino acids 20-128 of SEQ ID NO: 8, heavy chain variable region amino acids 20-137 of SEQ ID NO: 10 (antibody, V domains shown)
VL: MSPSQLIGFLLLWVPASRGEIVLTQSPGTLSVSPGERATLSCRASQSIGSSLHWYQQKPGQAPRLLIKYASQSLSGIPDRFSGSGSGTDFTLTISRLEPEDFAVYYCHQSSRLPHTFGQGTKVEIKRT
VH: MEFGLSWVFLVAILKGVQCEVQLVQSGGGLVKPGGSLRLSCAASGFTFSSFAMHWVRQAPGKGLEWISVIDTRGATYYADSVKGRFTISRDNAKNSLYLQMNSLRAEDTAVYYCARLGNFYYGMDVWGQGTTVTVSS
modifications: variable regions only: LC 20-128, HC 20-137; constant regions lack entries
[1]; 0.004 mg 19D12/IgG1, Day 4
  Tumor Average Size: 335 mm^3
[1]; 0.004 mg 19D12/IgG1, Day 7
  Tumor Average Size: 568 mm^3
[1]; 0.004 mg 19D12/IgG1, Day 11
  Tumor Average Size: 1314 mm^3
[1]; 0.004 mg 19D12/IgG1, Day -1
  Tumor Average Size: 142 mm^3
[1]; 0.02 mg 19D12/IgG1, Day 4
  Tumor Average Size: 231 mm^3
[1]; 0.02 mg 19D12/IgG1, Day 7
  Tumor Average Size: 307 mm^3
[1]; 0.02 mg 19D12/IgG1, Day 11
  Tumor Average Size: 547 mm^3
[1]; 0.02 mg 19D12/IgG1, Day -1
  Tumor Average Size: 137 mm^3
[1]; 0.1 mg 19D12/IgG1, Day 4
  Tumor Average Size: 249 mm^3
[1]; 0.1 mg 19D12/IgG1, Day 7
  Tumor Average Size: 321 mm^3
[1]; 0.1 mg 19D12/IgG1, Day 11
  Tumor Average Size: 615 mm^3
[1]; 0.1 mg 19D12/IgG1, Day -1
  Tumor Average Size: 135 mm^3
[1]; 0.5 mg 19D12/IgG1, Day 4
  Tumor Average Size: 205 mm^3
[1]; 0.5 mg 19D12/IgG1, Day 7
  Tumor Average Size: 273 mm^3
[1]; 0.5 mg 19D12/IgG1, Day 11
  Tumor Average Size: 492 mm^3
[1]; 0.5 mg 19D12/IgG1, Day -1
  Tumor Average Size: 123 mm^3
[2]; 0.004 mg 19D12, Day 0
  Tumor Average Size: 89 mm^3
[2]; 0.004 mg 19D12, Day 2
  Tumor Average Size: 120 mm^3
[2]; 0.004 mg 19D12, Day 6
  Tumor Average Size: 146 mm^3
[2]; 0.004 mg 19D12, Day 9
  Tumor Average Size: 177 mm^3
[2]; 0.004 mg 19D12, Day 13
  Tumor Average Size: 212 mm^3
[2]; 0.004 mg 19D12, Day 16
  Tumor Average Size: 235 mm^3
[2]; 0.004 mg 19D12, Day 20
  Tumor Average Size: 292 mm^3
[2]; 0.004 mg 19D12, Day 23
  Tumor Average Size: 331 mm^3
[2]; 0.004 mg 19D12, Day 24
  Tumor Average Size: 331 mm^3
[2]; 0.02 mg 19D12, Day 0
  Tumor Average Size: 97 mm^3
[2]; 0.02 mg 19D12, Day 2
  Tumor Average Size: 122 mm^3
[2]; 0.02 mg 19D12, Day 6
  Tumor Average Size: 151 mm^3
[2]; 0.02 mg 19D12, Day 9
  Tumor Average Size: 189 mm^3
[2]; 0.02 mg 19D12, Day 13
  Tumor Average Size: 222 mm^3
[2]; 0.02 mg 19D12, Day 16
  Tumor Average Size: 248 mm^3
[2]; 0.02 mg 19D12, Day 20
  Tumor Average Size: 292 mm^3
[2]; 0.02 mg 19D12, Day 23
  Tumor Average Size: 344 mm^3
[2]; 0.02 mg 19D12, Day 24
  Tumor Average Size: 344 mm^3
[2]; 0.1 mg 19D12, Day 0
  Tumor Average Size: 89 mm^3
[2]; 0.1 mg 19D12, Day 2
  Tumor Average Size: 115 mm^3
[2]; 0.1 mg 19D12, Day 6
  Tumor Average Size: 144 mm^3
[2]; 0.1 mg 19D12, Day 9
  Tumor Average Size: 193 mm^3
[2]; 0.1 mg 19D12, Day 13
  Tumor Average Size: 226 mm^3
[2]; 0.1 mg 19D12, Day 16
  Tumor Average Size: 245 mm^3
[2]; 0.1 mg 19D12, Day 20
  Tumor Average Size: 282 mm^3
[2]; 0.1 mg 19D12, Day 23
  Tumor Average Size: 335 mm^3
[2]; 0.1 mg 19D12, Day 24
  Tumor Average Size: 335 mm^3
[2]; 0.5 mg 19D12, Day 0
  Tumor Average Size: 83 mm^3
[2]; 0.5 mg 19D12, Day 2
  Tumor Average Size: 107 mm^3
[2]; 0.5 mg 19D12, Day 6
  Tumor Average Size: 133 mm^3
[2]; 0.5 mg 19D12, Day 9
  Tumor Average Size: 173 mm^3
[2]; 0.5 mg 19D12, Day 13
  Tumor Average Size: 210 mm^3
[2]; 0.5 mg 19D12, Day 16
  Tumor Average Size: 234 mm^3
[2]; 0.5 mg 19D12, Day 20
  Tumor Average Size: 264 mm^3
[2]; 0.5 mg 19D12, Day 23
  Tumor Average Size: 317 mm^3
[2]; 0.5 mg 19D12, Day 24
  Tumor Average Size: 317 mm^3
[3]; 0.02 mg 19D12, Day 0
  Tumor Average Size: 150 mm^3
[3]; 0.02 mg 19D12, Day 5
  Tumor Average Size: 181 mm^3
[3]; 0.02 mg 19D12, Day 8
  Tumor Average Size: 204 mm^3
[3]; 0.02 mg 19D12, Day 12
  Tumor Average Size: 207 mm^3
[3]; 0.02 mg 19D12, Day 15
  Tumor Average Size: 217 mm^3
[3]; 0.02 mg 19D12, Day 19
  Tumor Average Size: 237 mm^3
[3]; 0.02 mg 19D12, Day 22
  Tumor Average Size: 290 mm^3
[3]; 0.1 mg 19D12, Day 0
  Tumor Average Size: 151 mm^3
[3]; 0.1 mg 19D12, Day 5
  Tumor Average Size: 164 mm^3
[3]; 0.1 mg 19D12, Day 8
  Tumor Average Size: 146 mm^3
[3]; 0.1 mg 19D12, Day 12
  Tumor Average Size: 154 mm^3
[3]; 0.1 mg 19D12, Day 15
  Tumor Average Size: 141 mm^3
[3]; 0.1 mg 19D12, Day 19
  Tumor Average Size: 154 mm^3
[3]; 0.1 mg 19D12, Day 22
  Tumor Average Size: 170 mm^3
[3]; 1 mg 19D12, Day 0
  Tumor Average Size: 155 mm^3
[3]; 1 mg 19D12, Day 5
  Tumor Average Size: 161 mm^3
[3]; 1 mg 19D12, Day 8
  Tumor Average Size: 128 mm^3
